Article PMC6101539 (Nucleic Acids Research, 2018)
Read-outs that look alike come from different tables or passages of the source.

T1: SsbB (Bacillus subtilis, UniProt C0SPB6 1-113)
T1 sequence: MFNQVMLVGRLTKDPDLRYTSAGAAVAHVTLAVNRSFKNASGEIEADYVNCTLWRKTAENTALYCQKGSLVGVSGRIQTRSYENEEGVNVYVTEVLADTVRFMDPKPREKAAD

T2: RarA;SsbBA chimera (SsbB*) (Bacillus subtilis;Bacillus subtilis, UniProt O34528;C0SPB6 1-421;1-113+P37455:164-172, |internal_change)
T2 sequence 1: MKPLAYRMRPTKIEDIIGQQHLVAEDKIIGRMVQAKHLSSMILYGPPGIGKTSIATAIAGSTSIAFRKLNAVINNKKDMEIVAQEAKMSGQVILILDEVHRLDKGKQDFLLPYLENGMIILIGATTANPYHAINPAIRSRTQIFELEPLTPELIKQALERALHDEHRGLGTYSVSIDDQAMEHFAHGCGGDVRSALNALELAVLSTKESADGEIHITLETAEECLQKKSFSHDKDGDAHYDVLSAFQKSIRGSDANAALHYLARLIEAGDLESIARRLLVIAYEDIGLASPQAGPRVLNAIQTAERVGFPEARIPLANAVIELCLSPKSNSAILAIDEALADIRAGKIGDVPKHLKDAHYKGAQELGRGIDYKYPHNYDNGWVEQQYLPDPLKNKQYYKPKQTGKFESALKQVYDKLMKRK
T2 sequence 2: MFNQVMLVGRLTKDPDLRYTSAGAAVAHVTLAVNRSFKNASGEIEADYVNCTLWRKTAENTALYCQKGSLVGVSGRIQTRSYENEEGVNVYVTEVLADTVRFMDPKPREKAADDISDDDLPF

T3: RarA (Bacillus subtilis, UniProt O34528 1-421)
T3 sequence: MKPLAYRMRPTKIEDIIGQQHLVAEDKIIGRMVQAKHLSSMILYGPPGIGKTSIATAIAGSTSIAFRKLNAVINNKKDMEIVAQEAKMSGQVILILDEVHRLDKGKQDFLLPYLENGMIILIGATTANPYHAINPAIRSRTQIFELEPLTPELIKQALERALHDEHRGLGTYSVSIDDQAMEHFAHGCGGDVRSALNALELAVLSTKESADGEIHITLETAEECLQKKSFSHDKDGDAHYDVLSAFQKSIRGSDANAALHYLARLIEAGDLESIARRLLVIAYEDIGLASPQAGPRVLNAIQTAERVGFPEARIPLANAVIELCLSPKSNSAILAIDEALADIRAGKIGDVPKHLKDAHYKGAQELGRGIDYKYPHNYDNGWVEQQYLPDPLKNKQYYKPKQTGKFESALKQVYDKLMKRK

T4: RarA K51A;SsbA (Bacillus subtilis;Bacillus subtilis, UniProt O34528;P37455 1-421;1-172, K51A|)
T4 sequence 1: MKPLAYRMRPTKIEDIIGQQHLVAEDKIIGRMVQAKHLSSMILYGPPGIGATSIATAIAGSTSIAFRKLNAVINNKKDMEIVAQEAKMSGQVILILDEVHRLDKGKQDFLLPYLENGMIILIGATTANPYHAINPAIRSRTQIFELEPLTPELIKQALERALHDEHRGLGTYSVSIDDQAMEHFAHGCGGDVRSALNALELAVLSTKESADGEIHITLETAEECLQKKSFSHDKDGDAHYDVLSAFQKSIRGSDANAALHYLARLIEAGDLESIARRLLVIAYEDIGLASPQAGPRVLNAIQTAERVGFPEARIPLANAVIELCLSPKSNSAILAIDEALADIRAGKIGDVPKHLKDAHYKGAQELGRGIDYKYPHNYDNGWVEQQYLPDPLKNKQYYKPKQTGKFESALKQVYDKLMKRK
T4 sequence 2: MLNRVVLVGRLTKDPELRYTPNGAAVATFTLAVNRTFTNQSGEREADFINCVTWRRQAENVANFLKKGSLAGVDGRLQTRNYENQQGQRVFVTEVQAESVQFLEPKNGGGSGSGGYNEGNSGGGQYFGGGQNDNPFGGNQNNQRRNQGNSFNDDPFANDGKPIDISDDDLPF

T5: RarA;SsbA (Bacillus subtilis;Bacillus subtilis, UniProt O34528;P37455 1-421;1-172, |)
T5 sequence 1: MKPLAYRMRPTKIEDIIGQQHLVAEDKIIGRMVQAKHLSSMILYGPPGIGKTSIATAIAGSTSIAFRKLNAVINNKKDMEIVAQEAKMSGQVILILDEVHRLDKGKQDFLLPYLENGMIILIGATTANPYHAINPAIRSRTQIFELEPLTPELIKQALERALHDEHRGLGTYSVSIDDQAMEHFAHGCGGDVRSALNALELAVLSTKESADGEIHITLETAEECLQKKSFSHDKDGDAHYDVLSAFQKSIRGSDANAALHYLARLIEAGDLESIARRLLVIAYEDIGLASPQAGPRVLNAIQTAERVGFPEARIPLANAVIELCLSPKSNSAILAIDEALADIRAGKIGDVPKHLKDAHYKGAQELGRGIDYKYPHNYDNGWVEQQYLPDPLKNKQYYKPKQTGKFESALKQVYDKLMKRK
T5 sequence 2: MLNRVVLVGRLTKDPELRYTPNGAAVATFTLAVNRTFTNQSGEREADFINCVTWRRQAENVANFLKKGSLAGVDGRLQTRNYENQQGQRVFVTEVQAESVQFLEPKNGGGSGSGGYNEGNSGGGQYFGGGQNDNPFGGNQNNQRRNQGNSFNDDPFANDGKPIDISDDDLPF

T6: PriA (Bacillus subtilis, UniProt P94461 1-805)
T6 sequence: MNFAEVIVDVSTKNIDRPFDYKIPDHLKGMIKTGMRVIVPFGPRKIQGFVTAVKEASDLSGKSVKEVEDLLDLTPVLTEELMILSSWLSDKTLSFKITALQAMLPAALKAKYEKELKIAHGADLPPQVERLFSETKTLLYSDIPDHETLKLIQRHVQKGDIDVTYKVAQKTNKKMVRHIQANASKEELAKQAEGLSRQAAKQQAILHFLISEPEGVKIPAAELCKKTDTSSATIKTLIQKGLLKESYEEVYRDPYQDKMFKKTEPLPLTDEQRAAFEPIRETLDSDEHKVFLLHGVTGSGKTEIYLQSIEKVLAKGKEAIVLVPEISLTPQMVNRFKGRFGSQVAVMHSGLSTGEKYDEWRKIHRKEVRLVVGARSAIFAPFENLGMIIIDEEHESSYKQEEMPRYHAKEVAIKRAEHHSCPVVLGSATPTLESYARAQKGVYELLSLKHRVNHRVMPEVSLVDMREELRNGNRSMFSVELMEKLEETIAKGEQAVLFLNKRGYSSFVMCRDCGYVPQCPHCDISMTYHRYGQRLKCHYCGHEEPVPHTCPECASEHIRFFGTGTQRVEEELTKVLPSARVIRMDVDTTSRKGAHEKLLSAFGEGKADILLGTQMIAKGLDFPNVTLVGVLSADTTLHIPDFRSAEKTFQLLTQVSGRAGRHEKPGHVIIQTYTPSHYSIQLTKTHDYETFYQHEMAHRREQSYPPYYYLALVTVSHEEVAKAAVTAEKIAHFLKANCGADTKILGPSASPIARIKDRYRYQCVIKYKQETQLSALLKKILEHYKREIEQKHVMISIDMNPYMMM

T7: SsbA (Bacillus subtilis, UniProt P37455 1-172)
T7 sequence: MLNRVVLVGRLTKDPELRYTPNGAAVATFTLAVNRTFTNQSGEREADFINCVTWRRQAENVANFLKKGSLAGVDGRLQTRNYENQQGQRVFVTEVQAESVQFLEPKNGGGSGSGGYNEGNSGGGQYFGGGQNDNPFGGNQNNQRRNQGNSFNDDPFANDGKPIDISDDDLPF

T8: RarA;PriA (Bacillus subtilis;Bacillus subtilis, UniProt O34528;P94461 1-421;1-805, |)
T8 sequence 1: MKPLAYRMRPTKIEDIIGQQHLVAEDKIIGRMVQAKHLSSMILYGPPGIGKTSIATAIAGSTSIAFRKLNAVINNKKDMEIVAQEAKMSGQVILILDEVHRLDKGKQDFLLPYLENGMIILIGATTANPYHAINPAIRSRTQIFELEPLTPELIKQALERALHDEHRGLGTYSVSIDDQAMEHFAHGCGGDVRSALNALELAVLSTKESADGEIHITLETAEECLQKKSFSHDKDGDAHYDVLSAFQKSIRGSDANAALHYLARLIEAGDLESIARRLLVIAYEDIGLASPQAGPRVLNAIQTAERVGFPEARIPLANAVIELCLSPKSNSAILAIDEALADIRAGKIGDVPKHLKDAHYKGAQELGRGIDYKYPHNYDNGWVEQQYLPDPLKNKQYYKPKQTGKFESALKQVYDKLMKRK
T8 sequence 2: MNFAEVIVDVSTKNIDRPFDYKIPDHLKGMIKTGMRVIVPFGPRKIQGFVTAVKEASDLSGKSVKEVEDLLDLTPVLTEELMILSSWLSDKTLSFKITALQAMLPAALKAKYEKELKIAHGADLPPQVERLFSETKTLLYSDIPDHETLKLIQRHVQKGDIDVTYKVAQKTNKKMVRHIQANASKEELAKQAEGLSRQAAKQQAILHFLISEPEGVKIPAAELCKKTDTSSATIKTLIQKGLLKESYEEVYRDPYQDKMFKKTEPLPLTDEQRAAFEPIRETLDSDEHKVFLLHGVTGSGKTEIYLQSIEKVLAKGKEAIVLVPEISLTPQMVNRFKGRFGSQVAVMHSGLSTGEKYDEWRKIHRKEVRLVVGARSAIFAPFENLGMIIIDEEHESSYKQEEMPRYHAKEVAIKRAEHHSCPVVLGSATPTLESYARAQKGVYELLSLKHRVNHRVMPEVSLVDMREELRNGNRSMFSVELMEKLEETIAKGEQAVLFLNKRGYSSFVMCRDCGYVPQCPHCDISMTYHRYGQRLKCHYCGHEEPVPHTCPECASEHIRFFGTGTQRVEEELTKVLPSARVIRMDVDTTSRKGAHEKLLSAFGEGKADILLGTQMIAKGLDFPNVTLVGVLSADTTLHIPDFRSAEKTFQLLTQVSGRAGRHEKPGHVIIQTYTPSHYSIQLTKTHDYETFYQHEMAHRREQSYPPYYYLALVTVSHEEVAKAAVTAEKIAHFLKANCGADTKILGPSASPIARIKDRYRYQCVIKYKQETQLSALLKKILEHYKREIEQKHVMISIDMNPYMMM

B1: 91-nt ssDNA (F1) (ssDNA)
DNA: TATAAAAAAAGCCAAGCTTGCATGCCTGCAGGTCGACTCTAGAGGATCCCCGGGTACCGAGCTCGAATTCACTGGCCGTCGTTTTACAACG
B2: replicated fork (F1/F2/F3) (dsDNA)
DNA 1: TATAAAAAAAGCCAAGCTTGCATGCCTGCAGGTCGACTCTAGAGGATCCCCGGGTACCGAGCTCGAATTCACTGGCCGTCGTTTTACAACG
DNA 2: AATTCGTTGTAAAACGACGGCCAGTGAATTCGAGCTCGGTACCCGCCAGCCACAGTCAGACACACACACACTACACACAAAAAAAAAAA
DNA 3: TTTTTTTTTTTGTGTGTAGTGTGTGTGTGTCTGACTGTGGCTGG
B3: fork DNA (F1/F2) (dsDNA)
DNA 1: TATAAAAAAAGCCAAGCTTGCATGCCTGCAGGTCGACTCTAGAGGATCCCCGGGTACCGAGCTCGAATTCACTGGCCGTCGTTTTACAACG
DNA 2: AATTCGTTGTAAAACGACGGCCAGTGAATTCGAGCTCGGTACCCGCCAGCCACAGTCAGACACACACACACTACACACAAAAAAAAAAA

Key:
Test in all cases: EMSA
[1] = molecular target: T1, SsbB
[2] = molecular target: T2, RarA;SsbBA chimera (SsbB*)
[3] = molecular target: T3, RarA
[4] = molecular target: T4, RarA K51A;SsbA
[5] = molecular target: T5, RarA;SsbA
[6] = molecular target: T6, PriA
[7] = molecular target: T7, SsbA
[8] = molecular target: T8, RarA;PriA
[9] = molecular target: T7, SsbA; remark: listed apart in the source

Binder | Kd [1] [µM] | binding result [2] | Kd [3] [µM] | binding result [4] | binding result [5] | Kd [6] [µM] | binding result [7] | binding result [8] | binding result [9]
B1 | ~0.006 | binds | ~0.012 | binds | binds |  |  |  | 
B2 |  |  | ~0.019 |  | binds | ~0.003 | binds | binds | 
B3 |  |  | ~0.012 |  | binds |  |  |  | binds
